How the values were obtained:
[1] = target: human TrkB extracellular domain (aa Cys32-His430) expressed with the Fc portion of human IgG1 at the C-terminus (human); assay: competition ELISA, 500 pM hTrkB-hFc pre-mixed with mAb, plate-coated hNT-4
[2] = target: human TrkB extracellular domain (aa Cys32-His430) expressed with the Fc portion of human IgG1 at the C-terminus (human); assay: competition ELISA, 500 pM hTrkB-hFc pre-mixed with mAb, plate-coated hBDNF

human TrkB extracellular domain (aa Cys32-His430) expressed with the Fc portion of human IgG1 at the C-terminus (human), sequence (chain, as listed by the source limits assumed): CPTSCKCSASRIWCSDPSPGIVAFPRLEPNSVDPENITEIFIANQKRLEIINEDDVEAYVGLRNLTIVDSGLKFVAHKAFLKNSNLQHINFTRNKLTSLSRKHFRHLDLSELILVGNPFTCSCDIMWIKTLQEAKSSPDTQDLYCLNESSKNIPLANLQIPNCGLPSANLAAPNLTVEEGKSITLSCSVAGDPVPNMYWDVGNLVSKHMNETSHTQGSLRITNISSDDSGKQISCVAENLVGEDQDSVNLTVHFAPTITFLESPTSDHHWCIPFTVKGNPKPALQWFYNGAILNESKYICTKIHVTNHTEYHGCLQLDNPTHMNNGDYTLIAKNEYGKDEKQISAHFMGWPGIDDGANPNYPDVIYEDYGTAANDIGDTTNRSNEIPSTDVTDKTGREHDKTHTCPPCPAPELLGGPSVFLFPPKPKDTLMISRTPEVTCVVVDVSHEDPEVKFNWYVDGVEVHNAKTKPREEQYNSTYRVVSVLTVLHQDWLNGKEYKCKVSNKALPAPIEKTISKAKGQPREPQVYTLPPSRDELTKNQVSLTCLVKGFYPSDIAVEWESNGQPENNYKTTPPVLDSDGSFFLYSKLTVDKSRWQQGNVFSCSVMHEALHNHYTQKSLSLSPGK

Row | % Blockade with 100 nM antibody [1] | % Blockade with 100 nM antibody [2] | Substance
1 | -45% | -31% | hIgG4 negative isotype control (antibody)
2 | -14% | -19% | mIgG1 negative isotype control (antibody)
